Reference: patent US20250051266A1, “Novel GLV-Phenolamide: Biosynthesis and Function in Protecting Plants from Herbivore Attack” (Max-Planck-Gesellschaft zur Förderung der Wissenschaften …, priority 2021, published 2025)

Experiments:
Format in all cases: biochemical, Nicotiana attenuata
Conditions in all cases: other substrate fixed ((Z)-3-hexenal 1 mM or caffeoylputrescine 80 μM)
[1] = substrate: CC/C=C\CC=O; assay: Steady-state Michaelis-Menten kinetics of NaPPO2 (with or without NaBBL2)
Source text: (§1) FIG. 50 Michaelis-Menten kinetics of PPO2 and BBL2 with different concentrations of caffeoylputrescine and (Z)-3-hexenal. Steady-state kinetics of caffeoylputrescine or (Z)-3-hexenal conversion to CPH catalyzed by PPO2 purified from E. coli B121 expressing PPO2. Error bars represent the standard error of the means (SEM) from three independent measurements of reaction velocity. The kinetic constants, apparent Km and Vmax (Table 2), and their standard errors were inferred using nonlinear Michaelis-Menten curve-fitting in GraphPad Prism (v. 9.0d). Substrate concentration for (Z)-3-hexenal was 1 mM.
as §1, with “52” for “50”, “mM.Substrate concentration for caffeoylputrescine was 80 μM.” for “mM.”
(§2) Steady-state kinetics of NaPPO1, NaPPo2 and NaBBL2 enzymes: For steady-state kinetic analysis, the ability to oxidize N-caffeoylputrescine was tested in 84 mM acetate buffer (pH 4.8) at 22° C. water bath, containing 1 mM (Z)-3-hexnal, 1 mM FAD, 32 μg NaPPO1/NaPPO2, 30 μg/90 μg NaBBL2 (total volume 100 μL); assays lacking NaBBL2 enzymes served as negative controls.
(§3) The following eight N-caffeoylputrescine final concentrations were each tested at three independent experiments: 10, 20, 40, 60, 80, 120, 140, and 160 μM. Likewise, the ability to catalyze (Z)-3-hexnal was tested in 84 mM acetate buffer (pH 4.8) at 22° C., containing 80 μM N-caffeoylputrescine, 1 mM FAD, 32 μg NaPPO1/NaPPO2, 30 μg/90 μg NaBBL2 (total volume 100 μL); again, assays lacking NaBBL2 enzymes served as negative controls. The following eight (Z)-3-hexnal final concentrations were each tested in three independent experiments: 500, 600, 700, 800, 1000, 1200, 1600, and 2000 μM. The reactions were initiated by the addition of the corresponding recombinant enzymes and the components were mixed by briefly vortexing, and immediately returned to the 22° C. water bath for incubation. After 20 minutes, all the reactions were briefly vortexed, and 100 μL aliquot of each reaction was transferred to a cold Eppendorf tube (−20° C.) containing 100 μL of MeOH (with 600 ng/mL testosterone as an internal standard) to terminate enzyme activity. Samples were centrifuged at 16,000g, 4° C. for 30 min, and 150 μL supernatants were transferred into to 2 mL glass vials for LC/MS (1 μL injection volume) analysis under the same method as described previously. Standard curves for caffeoylputrescine using authentic standards (with 600 ng/mL testosterone as an internal standard) (FIG. 34) were used to calculate the concentrations of substrate and product in each assay sample. The kinetic constants for caffeoylputrescine and (Z)-3-hexnal, apparent Km and Vmax, were inferred using a nonlinear regression in GraphPad Prism 9 (FIG. 34).

[2] = substrate: NCCCCNC(=O)/C=C/c1ccc(O)c(O)c1; assay: as above
Source text: as §1
as §1, with “52” for “50”, “mM.Substrate concentration for caffeoylputrescine was 80 μM.” for “mM.”
as §2, §3

[3] = substrate: CC/C=C\CC=O; assay: Steady-state Michaelis-Menten kinetics of NaPPO1 (with or without NaBBL2)
Source text: as §1, with “49” for “50”, “PPO1” for “PPO2”, “PPO1.” for “PPO2.”
(§4) FIG. 51 Michaelis-Menten kinetics of PPO1 and BBL2 with different concentrations of caffeoylputrescine and (Z)-3-hexenal. Steady-state kinetics of caffeoylputrescine or (Z)-3-hexenal conversion to CPH catalyzed by PPO1 purified from E. coli B121 expressing PPO1. Error bars represent the standard error of the means (SEM) from three independent measurements of reaction velocity. The kinetic constants, apparent Km and Vmax (see Table 2), and their standard errors were inferred using nonlinear Michaelis-Menten curve-fitting in GraphPad Prism (v. 9.0d). Substrate concentration for caffeoylputrescine was 80 μM.
as §2, §3

[4] = substrate: NCCCCNC(=O)/C=C/c1ccc(O)c(O)c1; assay: as above
Source text: as §1, with “49” for “50”, “PPO1” for “PPO2”, “PPO1.” for “PPO2.”
as §4, §2, §3

[5] = other: PPO2 + BBL2 (30 μg), pH 4.8, 22.0 °C
[6] = other: PPO2 + BBL2 (90 μg), pH 4.8, 22.0 °C
[7] = other: PPO2 alone, pH 4.8, 22 °C
[8] = other: PPO1 + BBL2 (30 μg), pH 4.8, 22.0 °C
[9] = other: PPO1 + BBL2 (90 μg), pH 4.8, 22.0 °C
[10] = other: PPO1 alone, pH 4.8, 22 °C

B1: NaPPO2 (Nicotiana attenuata) (protein)
chain: MASSSSSTLPLCASKTPSSSFTNTNSSFFAKPSQLFLHGKRNQNFKFSCNANSGEHDKNLDAVDRRNVLLGLGGLYGAANLAPLATAAPIPPPDLKSCSKAHINDQEEVSYSCCPPIPSDMDSVPYYKFPSMPKLRIRPAAHAADEEYIAKYQLATSRMRELDKDPFDPLGFKQQANIHCAYCNGAYKIGGKELQVHFSWLFFPFHRWYLYFYERILGSLINDPTFGLPYWNWDHPKGMRIPPMFDREGSSLYDARRNQSHRNGTIIDLGYFGTEVQTTQLQQMTNNLTIMYRQMITNAPCPLLFFGQPYPLGTDPSPGMGTIENIPHTPVHIWVGSGPNENNVQHGEDMGNFYSAGLDPLFYSHHANVDRMWSEWKALGGKRRDLTHKDWLNSEFFFYDENRNPFRVKVRDCLDSKKMGFDYAPMPTPWRNFKPIRKSNAGKVNLSSVPPASRVFPLSKLDRAISFSIDRPSSSRTQQEKNEQEEMLTFNNIKYDDSKYIRFDVFLNVDKTVNADELDKAEYAGSYTSLPHVHGDNASHVTSVTFQLAITELLEDIGLEDEDTIAVTVVPKTGGEEISIEGVEIKLVDC
B1 was tested, and the Km [1, 5] was 662.39 ± 360.69 µM, the Vmax [1, 5] was 0.021 ± 0.004 µM/mg/min and the Km [1, 6] was 643.31 ± 217.25 µM. For the same protein, the Vmax [1, 6] was 0.024 ± 0.003 µM/mg/min, the Km [1, 7] was 673.35 ± 393.28 µM and the Vmax [1, 7] was 0.023 ± 0.005 µM/mg/min. It also gave a Km [2, 5] of 206.18 ± 49.95 µM, a Vmax [2, 5] of 0.63 ± 0.09 µM/mg/min and a Km [2, 6] of 207.19 ± 78.07 µM. It also gave a Vmax [2, 6] of 0.67 ± 0.17 µM/mg/min, a Km [2, 7] of 204.35 ± 51.37 µM and a Vmax [2, 7] of 0.64 ± 0.10 µM/mg/min.

B2: NaPPO1 (Nicotiana attenuata) (protein)
chain: MASSSTLPLCTTKTPFSSSTNSFFFAKPSHLFLNGKRNQSFKVSCTGEHDGNQLDAIKEGAVERRNVLLGLGGLYGAANLAPLASAAPVPPPDLKSCGPATITDGPTVSYSCCPPTPDDMDSVPYYKIPRMSKLRKRPAAQDVSEEYIAKYQLATSKMRELDKDPFDPLGFKQQANIHCAYCNDAYTMGDKKLQVHQSWLFFPFHRWYLYFYERILGSLIDDPTFALPYWNWDHPSGMRLPAMFDVEGSSLYDARRNPNVRNGTIIDLGFFGNEVKTNEIQMITNNLILMYRQMITNAPSPLLFFGEPYRFGSKPNPGQGTIENIPHTPVHIWTGTVRDTDLGNGVKSYGEDMGNFYSAGLDPVFYSHHANVDRMWNEWKALGGKRRDLTDKDWLNSEFFFYDENRDPWRVKVRDCLDSKKMGYDYEPKATPWRNFKPGKKTTPGKVNLRSVKPASKVFPLSNLDRAICFSIERPATSRSQQEKDEFEEVLTFKNLKYDDSRYIKFDVFVNADKTVNADDIDKTEYAGSYTSLPHVHGPNNATHVVEVEEFKLAITELLEDCGLEDDDIIAVTVVPKTGGEVVSIDCVLIELKAFY
In the case of B2, the Km [3, 8] is reported as 870.67 ± 381.05 µM, the Vmax [3, 8] is reported as 0.10 ± 0.02 µM/mg/min and the Km [3, 9] is reported as 870.67 ± 381.05 µM. For the same protein, the Vmax [3, 9] was 0.09 ± 0.02 µM/mg/min, the Km [3, 10] was 853.22 ± 257.87 µM and the Vmax [3, 10] was 0.09 ± 0.01 µM/mg/min. It also gave a Km [4, 8] of 86.09 ± 15.34 µM, a Vmax [4, 8] of 0.25 ± 0.02 µM/mg/min and a Km [4, 9] of 95.52 ± 28.20 µM. The Vmax [4, 9] was 0.26 ± 0.04 µM/mg/min, the Km [4, 10] was 67.30 ± 10.59 µM and the Vmax [4, 10] was 0.21 ± 0.01 µM/mg/min.
